# From the RNAGym collection of RNA variant scans (doi:10.1073/pnas.2313332121)
# B1: TPR t1 (parent)
# chain: GACCAAUCUGCCCUCAGAGCUCGAGAACAUCUUCGGAUGCAGAGGAGGCAGGCUUCGGUGGCGCGAUAGCGCCAACGUCCUCAACCUCCAAUGCAUCCCACCACAUGAUGAUGCCUGAAGAGCCUUGGUUUUUUG
# Variants of: B1
# Assay: polymerase ribozyme fitness, log enrichment relative to wild type (log ratio); higher = more active; in vitro selection for triplet polymerase activity
# In short: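 Both subunits of a heterodimeric triplet polymerase ribozyme were given their own mutant library, built by PCR and transcribed. Each library was annealed with a biotinylated primer, the partner subunit and triplets, incubated frozen at −7 °C, and its extended constructs gel-excised, captured on streptavidin beads and amplified by RT-PCR, all in one round done in triplicate. Fitness is the logarithm of genotype enrichment relative to wild-type enrichment, with replicates averaged by inverse-variance weighting. That logarithm is base 2, and Illumina-sequenced genotypes needed ≥10 input reads and ≥1 read per output.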
row,Variant,polymerase ribozyme fitness (log ratio)
1,G42A G44A G47U,-3.4
2,C64G U112A U126C,-5.9
3,G10C G25C C31G C89A C114U,-7.2
4,G61C C73U C85U G117A U129C,-5.49
5,G93A G110A U112A,-2.76
6,C20U G44U,-2.46
7,G42C G44U A74C C99A C123G,-6.31
8,C79A G110A,-2.55
9,C3U G61U C85U C101A,-2.34
10,C8G G120C,2.34
11,A2U A46U G47C G71A U132C,-3.81
12,A41G A83C C98U,-1.73
13,A18C A29U C88U C89U C97U,-4.49
14,C62G G93C G120A U125G U131G,-3.65
15,C22A A27G C85G A100C C101U G120C G127A,-6.82
16,C64U A118U,0.459
17,G42A G127U,-2.7
18,C4U C49U G52A,-3.12
19,C28U A41U G48A,-5.18
20,U7C C12U C22U G63A,-4.58
21,G47C C53U,-0.348
22,G61A U112A,1.31
23,C72U A103C,-4.5
24,A6U G17C U130A,-4.89

row,Variant,polymerase ribozyme fitness (log ratio)
1,A18G G39A C64A A90G G120C,-5.87
2,C12U A18U,-2.21
3,G113U U126A,-4.71
4,A50U G58A C88U,-2.22
5,A6C C62G,-2.28
6,C4U A50G G93A G117U A118U,-4.55
7,G58C A91U,-2.24
8,C73A C102G,-5.02
9,G51U A66G,-4.49
10,U21A G60U,-0.289
11,C8U G58A G93U G117U G128C,-5.28
12,C4G A37G C49G G113C,-4.25
13,A6G A46C C49A C53A U55C G127U,-3.07
14,C12A C15U G48C U92C U96A G122A,-4.12
15,C13U C22G C49U G71C C102U G122A,-5.74
16,G71U U130A,0.232
17,G45A U59A C64U G128U,-2.82
18,C56U G69U A90C C94A C104G G113U G122A,-6.84
19,C11G C12A C49U C85A A91C,-2.76
20,G47U C56U C72U U116C,-3.11
21,A6U C11U U55G A83U U106A G128U U130C,-1.47
22,U7C G45U G60A C82G C85G G117A,-3.81
23,C8A C72G C85A A111G U126C,-1.51
24,G44A A46G G52A C123A,-1.71

row,Variant,polymerase ribozyme fitness (log ratio)
1,A5U G35C,-4.38
2,C34A G69C,-4.71
3,U21A C72G A75U C85U,-1.63
4,C13G C101U,-2.08
5,C86U A100U G110A U129G,-3.54
6,U33G C34G A103U,-6.38
7,A27G G42A C73G,-5.22
8,C11A G60U A74U C88A,-2.8
9,A41U G48C C70U,-3.25
10,C49G G52A C82G A84G A121U,0.784
11,G10A C13U U30C C31A G42U C123A U126G,-5.09
12,A43U G63U U134G,-3.02
13,G48U C49U G60C A84U U129A U134G,-1.92
14,A6U A16U C40G C56A,-3.22
15,C82G A90U,-2.11
16,C56U U125A,-0.748
17,C12A G42A C88U C114A G120A,-2.22
18,C72U G77C C114U,-2.28
19,G77C C89U G128C,-3.81
20,C11U G19C G71A U116C A119U G122A,-6.27
21,C88G G107A U130C,-6.86
22,G17A G63U A90C U112A,-5.03
23,A46U G107C,-6.11
24,U21A U38A G42A G44A U55G,-2.99

row,Variant,polymerase ribozyme fitness (log ratio)
1,U7G C72U G93C C115U,0.15
2,G71U U132A,0.382
3,A18G C62U A74C,-5.71
4,C15U C53G C82A,-1.78
5,C104U C115G,-1.22
6,U14A C20G C40U G45A G63C U96G U112A G117A,-6.83
7,C40U G69A C72U C124A,-1.11
8,C22G G93U,-3.03
9,C12G C62G A108G,-3.58
10,G25U G39U U106A C114U,-5.15
11,A37U G52U G69C,-2.07
12,C28U G42C,-3.36
13,C56A C76A C88A C115U,-3.94
14,G113U U129A,-3.53
15,G52A G69A G93U C123U,-3.78
16,A18U G44A U54A C86U U106A,-5.25
17,A6U U92G,-2.92
18,G47A G48C G52U C79U,-3.46
19,U9C G17U U32C C49U C72U A105G,-5.59
20,G10A U32C C72G U87A U131A,-2.99
21,G36A C49A G60A A118G,-1.7
22,C13U G45U U55C C70U G93U,-3.96
23,G25A C70A,-6.74
24,G63C U116A C123U,-1.91

row,Variant,polymerase ribozyme fitness (log ratio)
1,G71A C101A G113U,-5.02
2,G39C G69C,-2.22
3,C53U C73G,-2.05
4,G71A G120C G122A,-1.43
5,C123A G135A,0.422
6,U54A G69U G128C U130A U132A,-2.67
7,G10U C12U C31U C72U C85A G122A,-5.23
8,C62U A111C,0.533
9,U14G C64U C98U,-4.29
10,G25A G63C,-6.68
11,C22U G52A A84C C104U,-5.74
12,A41C G69U C82U A105U C123A,-1.3
13,G10A G39U A90C U106A,-2.41
14,C4A A16U C72U A95C,-3.63
15,C22G C56U A105U U112C,-2.05
16,C4G C12G,-1.12
17,G52C G57C C79G C86U C115U,-1.83
18,C12U C104U,0.248
19,G17C G35A C123G G128U,-4.31
20,U55G G69A C73A,-3.04
21,A26C U112C,-4.51
22,C15U G122A,-1.11
23,U14G G63A,-2.49
24,A46C C72U A75U C123U,0.328

row,Variant,polymerase ribozyme fitness (log ratio)
1,C124A G128U,0.625
2,C22G G48A,-3.33
3,C8U C72G U92A C123A,-2.13
4,G36U U112G G113U,-3.55
5,U9G G36A C101G A121U,-0.24
6,C73G A83C C101G C115U U116A,-5.12
7,G10U G36A C64G A83G C94G G110U,-7.24
8,G48C G110A,-1.41
9,G39A G51A C64U U78C,-3.91
10,C3G C97U,-2.53
11,C12G G42A G52A C62U C104A,-5.44
12,C15G A37U C56U C123A,-1.93
13,A16G A29G G44A U87G A121C,-2.16
14,C73U U116C,-0.498
15,A6U G25A C56A C73A C79G C94U G113U C124A,-8.13
16,A43U C62U G77A U126A,-5.02
17,C11G A29G C49G G93U,-3.07
18,U96A C98U,-3.4
19,C40G G61C A118U,-1.55
20,G10A C49U,-0.363
21,A6U A29U G61A C115G G117U,-4.58
22,A2C C72A G120U,-1.37
23,C11U C85G U109G C123A,-5.74
24,A37U G52A C56A G110C A118U,-5.47

row,Variant,polymerase ribozyme fitness (log ratio)
1,C40U G77A,-1.17
2,A6U C53U,0.192
3,C11U A16C G63A,-3.2
4,A46U G52C U87G G135U,-1.01
5,G48U G61U G113A,-1.24
6,C62A G120C,-0.534
7,G110A G128U,-3.47
8,C8U A18U,-1.03
9,C40A G71A G113A,-3.05
10,U32C A119G,0.645
11,C8G G47U,0.0211
12,C64U U106C,-0.52
13,C8G C40A,-1.11
14,G19A C72U,-3.79
15,A5C U7C A74C A90U,-1.47
16,C8A C49U C72A A100C U106G U109A U132C,-4.59
17,C11G C12G G48U G58U G60U C85A U106G,-4.78
18,C20U G39U C89U A119U U130G,-4.97
19,A37C,-0.431
20,G58C C70U,-0.846
21,A18U G36A A50G,-3.46
22,C76G G77U,0.0405
23,A5G U78A G120C,0.799
